The source of these data is patent US20080107658A1 (AstraZeneca / MedImmune, published 2008).

First the molecules themselves.
B1: 1211G10 human IgG4 (antibody, V domains shown)
VH: EVQLVQSGAEVRKPGSSVKVSCKAYGGTFSTYGISWVRQAPGQGLEWVGGIIPIFDTRNSAQSFQGRVTITADESTSTAYMEVSSLRSDDTAVYYCASSSRIYDMVSTLIPYYDMDVWGQGTMVTVSS
VL: QAVLTQPSSVSTPPGQKVTISCSGSSSNIGNNYVSWYQQLPGTAPKLLIYDNNKRPSGIPDRFSGSKSGTSATLGITGLQTGDEADYYCGTWDSSLSAWVFGGGTKLTVL
B2: 1132H9 human IgG4 (antibody, V domains shown)
VH: B1 VH with R12K, Y25S, V48I, R58G, M105L, V106N, S107P, T108S, I110T, P111A
VL: B1 VL with N28D, S57T
B3: 1127D9 human IgG4 (antibody, V domains shown)
VH: EVQLVQSGAEVKKPGSSVKVSCKASGGTFSTYGISWVRQAPGQGLEWIGGIIPIFDTGNSAQSFQGRVTITADESTSTAYMEVSSLRSDDTAVYYCASSSRIYDYHTIAYYDMDVWGQGTMVTVSS
VL: B1 VL
B4: 1146D7 human IgG4 (antibody, V domains shown)
VH: B1 VH with R12K, Y25S, V48I, R58G, M105L, V106N, S107P, T108S, I110T, P111A
VL: B1 VL with K17E, S27T
B5: 1131H2 human IgG4 (antibody, V domains shown)
VH: EVQLVQSGAEVKKPGSTVKVSCKASGGTFSTYGISWVRQAPGQGLEWIGGIIPIFDTGNSAQSFQGRVTITADESTSTAYMEVSSLRSDDTAVYYCASSSRIYDLNPSLTAYYDMDVWGQGTMVTVSS
VL: B1 VL with S25T
B6: 1126H5 human IgG4 (antibody, V domains shown)
VH: EVQLVQSGAEVKKPGSSVKVSCKASGGTFSTYGISWVRQAPGQGLEWIGGIIPIFDAGNSAQSFQGRVTITADESTSTAHMEVSSLRSEDTAVYYCASSSRIYDHHIQKGGYYDMDVWGQGTMVTVSS
VL: B1 VL
B7: 1147D2 human IgG4 (antibody, V domains shown)
VH: B5 VH with T17S, K19R, V20I, I34V
VL: B1 VL with I59V
B8: 1214D10 human IgG4 (antibody, V domains shown)
VH: EVQLVQSGAEAKKPGSSVKVSCKASGGTFSTYGISWVRQAPGRGLEWIGGIIPIFDTGNSAQSFQGRVAITADESTSTAYMEVSSLRSDDTAVYYCASSSRIYDAHLNHHGYYDMDVWGQGTMVTVSS
VL: B1 VL with T81A
B9: 1134D9 human IgG4 (antibody, V domains shown)
VH: B5 VH with T17S, T69A
VL: B1 VL with S95G
B10: 1218H5 human IgG4 (antibody, V domains shown)
VH: B5 VH with E10V, T17S, N59S
VL: B1 VL with I29T, P41S
B11: 1145D1 human IgG4 (antibody, V domains shown)
VH: B5 VH with T17S, G58S, L105F, N106R, P107T, S108L, L109Y, T110S, A111T
VL: B1 VL with P60S, T77A
B12: 1126F1 human IgG4 (antibody, V domains shown)
VH: B5 VH with S7T, T17S, L105A, P107R, S108Q, L109A, T110V, A111P
VL: B1 VL with K17M, N28D
B13: G1230H7 human IgG4 (antibody, V domains shown)
VH: QVQLVQSGAEVKKPGSSVKVSCKASGGTFSTYGISWVRQAPGQGLEWMGGIIPIFDTGNSAQSFQGRVTITADESTSTAYMELSSLRSEDTAVYYCARSSRIYDFNSALISYYDMDVWGQGTMVTVSS
VL: B1 VL with A2S, S8P, T12A, P13A
B14: 1131D7 human IgG4 (antibody, V domains shown)
VH: B5 VH with T17S, L105F, P107S, T110I
VL: B1 VL with A85T, G102S
B15: 1230H7 human IgG4 (antibody, V domains shown)
VH: B13 VH with Q1E, V2M, M48I, L83V, E89D, R98S
VL: QAVLTQPSSVSTPPGQKVTISCSGSSSNIGNNYVSWYQQLPGTAPKLLIYDNNKRPSGIPDRFSGSKSGTSATLGITGLQTGDEADYYCGTWDSSLSAWVFGGGTKLTV
B16: 1214A1 human IgG4 (antibody, V domains shown)
VH: B3 VH with K19R, Y105A, T107L, I108Q
VL: B1 VL with S57P, W92R
B17: 1126G5 human IgG4 (antibody, V domains shown)
VH: B5 VH with T17S, L105F, N106T, P107S, S108G, T110A, A111P
VL: B1 VL with S57P, A98T
B18: 1127F9 human IgG4 (antibody, V domains shown)
VH: B5 VH with T17S, E82K, L105Y, N106I, S108G, L109M, T110R, A111P
VL: B1 VL with S25N, K67R, S71L
B19: 1132A9 human IgG4 (antibody, V domains shown)
VH: B5 VH with T17S, D56G, L105F, N106E, T110I, A111Y
VL: B1 VL
B20: 1227H8 human IgG4 (antibody, V domains shown)
VH: QMQLVQSGAEVKKTGSSVKVSCKASGHTFAYHYLHWVRQAPGQGLEWMGGIIPIFGTTNYAQRFQDRVTITADESTSTAYMELSSLRSEDTAVYYCASADYAWESYQPPQINGVWGRGTMVTVSS
VL: QSVLTQPPSVSAAPGQKVTITCSGSTSNIGNNYVSWYQQHPGKAPKLMIYDVSKRPSGVPDRFSGSKSGNSASLDISGLQSEDEADYYCAAWDDSLSEFFFGTGTKLTVL
B21: 1230D8 human IgG4 (antibody, V domains shown)
VH: QMQLVQSGAEVKKTGSSVKVSCKASGYTFPYHYLHWVRQAPGQGLEWMGGIIPIFGTTNYAQRFQDRVTITADESTSTAYMEFSSLRSEDTAVYYCASADYVWESYHPATSLSLWGRGTMVTVSS
VL: B20 VL with T21S, S23P, H40R, G78E, F100L

Residue numbers refer to the chain shown, from its start.

The target of one assay is rat nerve growth factor (beta-NGF) (rat, UniProt P25427 122-241). In words: cell-based or functional assay.
rat nerve growth factor (beta-NGF), sequence (P25427 122-241): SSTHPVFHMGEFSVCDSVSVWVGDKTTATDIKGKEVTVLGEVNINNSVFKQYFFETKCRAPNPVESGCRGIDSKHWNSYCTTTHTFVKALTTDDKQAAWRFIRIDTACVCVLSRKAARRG
As for B1, the “IC50, FLIPR calcium mobilisation” value came out at 0.16 nM.

As for B2, the “IC50, FLIPR calcium mobilisation” value came to 0.13 nM.

As to B3, the “IC50, FLIPR calcium mobilisation” value was 0.22 nM.

In the case of B4, the “IC50, FLIPR calcium mobilisation” value amounted to 0.33 nM.

For the molecule B5, the “IC50, FLIPR calcium mobilisation” value came out at 0.11 nM.

Take B6: the “IC50, FLIPR calcium mobilisation” value came out at 0.15 nM.

B7: the “IC50, FLIPR calcium mobilisation” value amounted to 0.21 nM.

Regarding B8, the “IC50, FLIPR calcium mobilisation” value was found to be 0.14 nM.

Consider B9, for which the “IC50, FLIPR calcium mobilisation” value was found to be 0.14 nM.

Take B10: the “IC50, FLIPR calcium mobilisation” value is 0.13 nM.

Take B11: the “IC50, FLIPR calcium mobilisation” value is 0.17 nM.

On to B12, for which the “IC50, FLIPR calcium mobilisation” value stood at 0.15 nM.

B13: the “IC50, FLIPR calcium mobilisation” value came out at 0.34 nM and the “IC50, PC12 cell survival” value was determined as 7.5 nM.

As to B14, the “IC50, FLIPR calcium mobilisation” value came to 37 nM.

On to B15, for which the “IC50, FLIPR calcium mobilisation” value is 0.18 nM and the “IC50, PC12 cell survival” value came out at 0.32 nM.

As to B16, the “IC50, FLIPR calcium mobilisation” value stood at 0.16 nM and the “IC50, PC12 cell survival” value turned out to be 0.43 nM.

As to B17, the “IC50, FLIPR calcium mobilisation” value is 0.16 nM.

B18: the “IC50, FLIPR calcium mobilisation” value was 0.14 nM.

B19: the “IC50, FLIPR calcium mobilisation” value worked out at 0.25 nM.

In the case of B20, the “IC50, FLIPR calcium mobilisation” value worked out at 0.43 nM and the “IC50, PC12 cell survival” value is 35 nM.

In the case of B21, the “IC50, FLIPR calcium mobilisation” value was 0.29 nM and the “IC50, PC12 cell survival” value was found to be 37 nM.

For a further assay, the target named is mouse nerve growth factor (mouse, UniProt P01139 122-241). In words: cell-based or functional assay.
mouse nerve growth factor, sequence (P01139 122-241): as the sequence (P25427 122-241) above, with G40A, K50R, P61S, D94E, A117T counted along it
Regarding B1, the “IC50, FLIPR calcium mobilisation” value was 0.15 nM.

In the case of B2, the “IC50, FLIPR calcium mobilisation” value amounted to 0.16 nM.

On to B3, for which the “IC50, FLIPR calcium mobilisation” value stood at 0.21 nM.

As for B4, the “IC50, FLIPR calcium mobilisation” value came out at 0.31 nM.

Turning to B5, the “IC50, FLIPR calcium mobilisation” value was 0.12 nM.

For B6, the “IC50, FLIPR calcium mobilisation” value was 0.23 nM.

With B7, the “IC50, FLIPR calcium mobilisation” value came out at 0.24 nM.

Consider B8, for which the “IC50, FLIPR calcium mobilisation” value amounted to 0.13 nM.

On to B9, for which the “IC50, FLIPR calcium mobilisation” value was determined as 0.16 nM.

With B10, the “IC50, FLIPR calcium mobilisation” value is 0.15 nM.

Take B11: the “IC50, FLIPR calcium mobilisation” value is 0.24 nM.

In the case of B12, the “IC50, FLIPR calcium mobilisation” value worked out at 0.22 nM.

For B13, the “IC50, FLIPR calcium mobilisation” value was 0.25 nM.

Take B14: the “IC50, FLIPR calcium mobilisation” value worked out at 71 nM.

Consider B15, for which the “IC50, FLIPR calcium mobilisation” value was 0.15 nM.

Take B16: the “IC50, FLIPR calcium mobilisation” value turned out to be 0.14 nM.

Turning to B17, the “IC50, FLIPR calcium mobilisation” value was found to be 0.16 nM.

As to B18, the “IC50, FLIPR calcium mobilisation” value came to 0.2 nM.

Consider B19, for which the “IC50, FLIPR calcium mobilisation” value stood at 0.33 nM.

Consider B20, for which the “IC50, FLIPR calcium mobilisation” value was found to be 0.48 nM.

For the molecule B21, the “IC50, FLIPR calcium mobilisation” value amounted to 0.37 nM.

The target in the next assay is human nerve growth factor (beta-NGF) (human, UniProt P01138 122-241). Put plainly: cell-based or functional assay.
human nerve growth factor (beta-NGF), sequence (P01138 122-241): as the sequence (P25427 122-241) above, with T3S, V6I, M9R, T37M, A60D, E65D, T92M, D94G, A117V, G120A counted along it
As for B1, the “IC50, FLIPR calcium mobilisation” value was 0.37 nM and the “IC50, PC12 cell survival” value amounted to 0.58 nM.

Turning to B2, the “IC50, FLIPR calcium mobilisation” value worked out at 0.35 nM and the “IC50, PC12 cell survival” value came to 0.55 nM.

Take B3: the “IC50, FLIPR calcium mobilisation” value was 0.4 nM and the “IC50, PC12 cell survival” value was determined as 0.57 nM.

B4: the “IC50, FLIPR calcium mobilisation” value was 0.38 nM and the “IC50, PC12 cell survival” value came to 0.48 nM.

As to B5, the “IC50, FLIPR calcium mobilisation” value worked out at 0.27 nM and the “IC50, PC12 cell survival” value came to 0.58 nM.

On to B6, for which the “IC50, FLIPR calcium mobilisation” value is 0.38 nM and the “IC50, PC12 cell survival” value is 8.7 nM.

As for B7, the “IC50, FLIPR calcium mobilisation” value is 0.36 nM and the “IC50, PC12 cell survival” value is 0.51 nM.

Regarding B8, the “IC50, FLIPR calcium mobilisation” value stood at 0.29 nM and the “IC50, PC12 cell survival” value came out at 0.35 nM.

As to B9, the “IC50, FLIPR calcium mobilisation” value amounted to 0.31 nM and the “IC50, PC12 cell survival” value was determined as 0.54 nM.

Regarding B10, the “IC50, FLIPR calcium mobilisation” value came to 0.33 nM and the “IC50, PC12 cell survival” value is 0.47 nM.

B11: the “IC50, FLIPR calcium mobilisation” value was found to be 0.36 nM and the “IC50, PC12 cell survival” value was 0.66 nM.

Consider B12, for which the “IC50, FLIPR calcium mobilisation” value was 0.35 nM and the “IC50, PC12 cell survival” value worked out at 2.9 nM.

Regarding B13, the “IC50, FLIPR calcium mobilisation” value is 0.31 nM and the “IC50, PC12 cell survival” value was found to be 2.5 nM.

Consider B14, for which the “IC50, FLIPR calcium mobilisation” value came to 117 nM and the “IC50, PC12 cell survival” value turned out to be 670 nM.

Consider B15, for which the “IC50, FLIPR calcium mobilisation” value was determined as 0.27 nM and the “IC50, PC12 cell survival” value came out at 0.42 nM.

With B16, the “IC50, FLIPR calcium mobilisation” value was determined as 0.26 nM and the “IC50, PC12 cell survival” value was 0.52 nM.

For the molecule B17, the “IC50, FLIPR calcium mobilisation” value was 0.23 nM and the “IC50, PC12 cell survival” value stood at 1.5 nM.

With B18, the “IC50, FLIPR calcium mobilisation” value is 0.36 nM and the “IC50, PC12 cell survival” value came out at 0.59 nM.

B19: the “IC50, FLIPR calcium mobilisation” value is 0.39 nM and the “IC50, PC12 cell survival” value was 0.9 nM.

Turning to B20, the “IC50, FLIPR calcium mobilisation” value came out at 0.44 nM and the “IC50, PC12 cell survival” value was 0.7 nM.

On to B21, for which the “IC50, FLIPR calcium mobilisation” value is 0.31 nM and the “IC50, PC12 cell survival” value was 0.71 nM.
